The source of these data is paper PMC6355894, “Cryo-EM structure of the essential ribosome assembly AAA-ATPase Rix7” (Nature Communications, 2019).

A word on the stoichiometry N: it is a count of units in the complex or per binding partner.

In assay [1] the target is Chaetomium thermophilum Rix7 double Walker B mutant (CT Rix7 E303Q/E602Q) (Chaetomium thermophilum). In words: cryo-EM structure; CT Rix7 E303Q/E602Q at ~0.6 mg/ml after SEC in Buffer A (20 mM Tris-HCl pH 8, 150 mM NaCl, 5 mM MgCl2, 0.5 mM DTT); no ATP and no substrate added; no symmetry imposed (C1); 4.5 Å.
The next assay concerns the target T1, CT Rix7 (Thermochaetoides thermophila, UniProt G0RZG1, E303Q/E602Q).
T1 construct: gene CTHT_0002840; full-length (NTD residues 1-192 not seen in map), codon-optimised, pET24b, C-terminal His6, expressed in E. coli BL21(DE3)*; asymmetric homohexamer
Description: cryo-EM structure of the complex ([…] A). The note with it: co-purified nucleotide, no ATP added; 5 mM MgCl2, pH 8; nucleotide-binding pockets of D1 and D2 AAA domains; ATP geometry restrained to reference structure.

T1 sequence (G0RZG1 entry or part of it E303Q/E602Q): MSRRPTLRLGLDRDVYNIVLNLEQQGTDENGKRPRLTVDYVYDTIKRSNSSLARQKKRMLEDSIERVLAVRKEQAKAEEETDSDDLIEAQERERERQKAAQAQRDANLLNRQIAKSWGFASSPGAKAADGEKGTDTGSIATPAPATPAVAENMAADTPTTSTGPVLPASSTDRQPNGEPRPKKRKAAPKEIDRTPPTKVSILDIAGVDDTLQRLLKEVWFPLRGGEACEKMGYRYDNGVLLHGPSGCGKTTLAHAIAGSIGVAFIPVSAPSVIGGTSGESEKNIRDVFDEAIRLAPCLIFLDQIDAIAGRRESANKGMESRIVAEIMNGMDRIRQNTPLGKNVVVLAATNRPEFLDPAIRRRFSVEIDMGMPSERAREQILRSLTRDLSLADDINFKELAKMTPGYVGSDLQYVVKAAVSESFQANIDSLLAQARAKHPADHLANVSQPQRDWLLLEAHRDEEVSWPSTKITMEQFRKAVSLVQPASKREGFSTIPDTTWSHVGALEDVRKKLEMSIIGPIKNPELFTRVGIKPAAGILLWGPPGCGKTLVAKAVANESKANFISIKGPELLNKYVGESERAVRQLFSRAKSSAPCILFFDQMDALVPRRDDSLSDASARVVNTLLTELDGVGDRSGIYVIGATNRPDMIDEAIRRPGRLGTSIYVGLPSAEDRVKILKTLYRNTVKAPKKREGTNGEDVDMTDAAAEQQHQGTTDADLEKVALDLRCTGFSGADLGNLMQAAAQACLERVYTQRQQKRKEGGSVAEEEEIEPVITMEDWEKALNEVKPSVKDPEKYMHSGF

As to “Chaetomium thermophilum Rix7 double Walker B mutant (CT Rix7 E303Q/E602Q) (enzyme)”, the stoichiometry N in assay [1] is 6.

For `Nc1ncnc2c1ncn2[C@@H]1O[C@H](COP(=O)(O)OP(=O)(O)OP(=O)(O)O)[C@@H](O)[C@H]1O` [ATP], the “cryo-EM structure of the complex (4.5 A)” value on CT Rix7 is “In the D1 AAA domain, ATP is present in the nucleotide pockets of all six protomers”.
